Measured values from patent publication US20160355553A1 (Janssen / Centocor, published 2016).

Legend:
H3-mini2-cl9+10 = H3-mini2-cl9+10 (influenza A virus H3N2, UniProt O11283 17-566); experiment: FACS on HEK293F [D00012 FIG. 9B]
H3-mini2-cl9+10+11 = H3-mini2-cl9+10+11 (influenza A virus H3N2, UniProt O11283 17-566); experiment: FACS on HEK293F [D00012 FIG. 9B]
[1] = target: H3-mini2-cl9+10+11+13-tri (influenza A virus H3N2); experiment: FACS on HEK293F [D00012 FIG. 9B]
H3-mini2-cl9+11 = H3-mini2-cl9+11 (influenza A virus H3N2, UniProt O11283 17-566); experiment: FACS on HEK293F [D00012 FIG. 9B]
H3-mini2 = H3-mini2 (influenza A virus H3N2, UniProt O11283 17-566); experiment: FACS on HEK293F [D00012 FIG. 9B]
H3-mini3-cl9+10+11+12+14 = H3-mini3-cl9+10+11+12+14 (influenza A virus H3N2, UniProt O11283 17-566); experiment: FACS on HEK293F [D00012 FIG. 9B]
H3mini2-cl9+10+11-GCN4 = H3mini2-cl9+10+11-GCN4 (influenza A virus H3N2); experiment: FACS on HEK293F [D00012 FIG. 9B]
H3-mini2-cl9+10+11+12 = H3-mini2-cl9+10+11+12 (influenza A virus H3N2, UniProt O11283 17-566); experiment: FACS on HEK293F [D00012 FIG. 9B]
H3-mini4-cl9+10+11+12+14 = H3-mini4-cl9+10+11+12+14 (influenza A virus H3N2, UniProt O11283 17-566); experiment: FACS on HEK293F [D00012 FIG. 9B]
H3-mini2-cl9+10+11-tri = H3-mini2-cl9+10+11-tri (influenza A virus H3N2); experiment: FACS on HEK293F [D00012 FIG. 9B]
[2] = target: H3-mini2-cl9+10+11+12-GCN4 (influenza A virus H3N2, UniProt O11283 17-566); experiment: FACS on HEK293F [D00012 FIG. 9B]
[3] = target: H3-mini2-cl9+10+11+13-GCN4 (influenza A virus H3N2); experiment: FACS on HEK293F [D00012 FIG. 9B]
H3-mini2-cl9+13 = H3-mini2-cl9+13 (influenza A virus H3N2, UniProt O11283 17-566); experiment: FACS on HEK293F [D00012 FIG. 9B]
[4] = target: H3-mini2-cl9+10+11+12-tri (influenza A virus H3N2, UniProt O11283 17-566); experiment: FACS on HEK293F [D00012 FIG. 9B]
H3-mini2-cl9+10+12 = H3-mini2-cl9+10+12 (influenza A virus H3N2, UniProt O11283 17-566); experiment: FACS on HEK293F [D00012 FIG. 9B]
H3-mini2-cl9+10+11+13 = H3-mini2-cl9+10+11+13 (influenza A virus H3N2, UniProt O11283 17-566); experiment: FACS on HEK293F [D00012 FIG. 9B]
H3 Mini-HA cluster 1+2 = H3 Mini-HA cluster 1+2 (influenza A virus H3N2, UniProt O11283 17-566); experiment: FACS on HEK293F [D00010 FIG. 8B]
H3 Mini-HA cluster 1+8 = H3 Mini-HA cluster 1+8 (influenza A virus H3N2, UniProt O11283 17-566); experiment: FACS on HEK293F [D00010 FIG. 8B]
H3 Mini-HA cluster 1+4 = H3 Mini-HA cluster 1+4 (influenza A virus H3N2, UniProt O11283 17-566); experiment: FACS on HEK293F [D00010 FIG. 8B]
H3 Mini-HA cluster 1+6 = H3 Mini-HA cluster 1+6 (influenza A virus H3N2, UniProt O11283 17-566); experiment: FACS on HEK293F [D00010 FIG. 8B]
H3 Mini-HA cluster 1+7 = H3 Mini-HA cluster 1+7 (influenza A virus H3N2, UniProt O11283 17-566); experiment: FACS on HEK293F [D00010 FIG. 8B]
H3 Mini-HA cluster 1+3 = H3 Mini-HA cluster 1+3 (influenza A virus H3N2, UniProt O11283 17-566); experiment: FACS on HEK293F [D00010 FIG. 8B]
H3 Mini-HA cluster 1 = H3 Mini-HA cluster 1 (influenza A virus H3N2, UniProt O11283 17-566); experiment: FACS on HEK293F [D00010 FIG. 8B]
[5] = target: hemagglutinin of influenza virus A/Johannesburg/33/94 (H3) (influenza A virus H3); experiment: cell-based or functional assay
[6] = target: hemagglutinin of influenza virus A/EW/MPF461/07 (H5) (influenza A virus H5); experiment: cell-based or functional assay
[7] = target: hemagglutinin of influenza virus A/WF/MPA 892/06 (H4) (influenza A virus H4); experiment: cell-based or functional assay
[8] = target: hemagglutinin of influenza virus A/Env/MPU3156/05 (H2) (influenza A virus H2); experiment: cell-based or functional assay
[9] = target: hemagglutinin of influenza virus A/Hong Kong/1/68 (H3) (influenza A virus H3N2, UniProt Q91MA7 17-566); experiment: cell-based or functional assay
[10] = target: hemagglutinin of influenza virus A/EW/MPH571/08 (H8) (influenza A virus H8); experiment: cell-based or functional assay

B1: CR9114 (antibody, V domains shown)
VH: QVQLVQSGAEVKKPGSSVKVSCKSSGGTSNNYAISWVRQAPGQGLDWMGGISPIFGSTAYAQKFQGRVTISADIFSNTAYMELNSLTSEDTAVYFCARHGNYYYYSGMDVWGQGTTVTVSS
VL: SYVLTQPPAVSGTPGQRVTISCSGSDSNIGRRSVNWYQQFPGTAPKLLIYSNDQRPSVVPDRFSGSKSGTSASLAISGLQSEDEAEYYCAAWDDSLKGAVFGGGTQLTVL
no binding (tested: 5 ug/ml): binding result (H3-mini2-cl9+10) | binding result (H3-mini2-cl9+10+11) | binding result [1] | binding result (H3-mini2-cl9+11) | binding result (H3-mini2) | binding result (H3-mini3-cl9+10+11+12+14) | binding result (H3mini2-cl9+10+11-GCN4) | binding result (H3-mini2-cl9+10+11+12) | binding result (H3-mini4-cl9+10+11+12+14) | binding result (H3-mini2-cl9+10+11-tri) | binding result [2] | binding result [3] | binding result (H3-mini2-cl9+13) | binding result [4] | binding result (H3-mini2-cl9+10+12) | binding result (H3-mini2-cl9+10+11+13) | binding result (H3 Mini-HA cluster 1+2) | binding result (H3 Mini-HA cluster 1+8) | binding result (H3 Mini-HA cluster 1+4) | binding result (H3 Mini-HA cluster 1+6) | binding result (H3 Mini-HA cluster 1+7) | binding result (H3 Mini-HA cluster 1+3) | binding result (H3 Mini-HA cluster 1)
19 mg/L: virus neutralization assay on MDCK cells, geomean IC50 [9]
10.5 mg/L: virus neutralization assay on MDCK cells, geomean IC50 [6]
0.8 mg/L: virus neutralization assay on MDCK cells, geomean IC50 [7]
21.9 mg/L: virus neutralization assay on MDCK cells, geomean IC50 [5]
8.8 mg/L: virus neutralization assay on MDCK cells, geomean IC50 [8] | virus neutralization assay on MDCK cells, geomean IC50 [10]

B2: CR8057 (antibody, V domains shown)
VH: EVQLVESGGGLVQPGGSLRLSCAASGFTDSVIFMSWVRQAPGKGLECVSIIYIDDSTYYADSVKGRFTISRHNSMGTVFLEMNSLRPDDTAVYYCATESGDFGDQTGPYHYYAMDV
VL: QSALTQPASVSGSPGQSITISCTGSSGDIGGYNAVSWYQHHPGKAPKLMIYEVTSRPSGVSDRFSASRSGDTASLTVSGLQAEDEAHYYCCSFADSNILI
no binding (tested: 5 ug/ml): binding result (H3-mini2-cl9+10) | binding result (H3-mini2-cl9+10+11) | binding result [1] | binding result (H3-mini2-cl9+11) | binding result (H3-mini2) | binding result (H3-mini3-cl9+10+11+12+14) | binding result (H3mini2-cl9+10+11-GCN4) | binding result (H3-mini2-cl9+10+11+12) | binding result (H3-mini4-cl9+10+11+12+14) | binding result (H3-mini2-cl9+10+11-tri) | binding result [2] | binding result [3] | binding result (H3-mini2-cl9+13) | binding result [4] | binding result (H3-mini2-cl9+10+12) | binding result (H3-mini2-cl9+10+11+13) | binding result (H3 Mini-HA cluster 1+2) | binding result (H3 Mini-HA cluster 1+8) | binding result (H3 Mini-HA cluster 1+4) | binding result (H3 Mini-HA cluster 1+6) | binding result (H3 Mini-HA cluster 1+7) | binding result (H3 Mini-HA cluster 1+3) | binding result (H3 Mini-HA cluster 1)
